Test results as given in paper PMC11672753.

Target: SARS-CoV-2 6P-mut7 spike protein (SARS-CoV-2) (UniProt P0DTC2)
Assay: cryo-EM structure

## COVA2-15 Fab
  stoichiometry N (Fab per spike trimer): 3
